Measurements reported in patent US20210395345A1.

Columns and labels:
Assay in all cases: cell-based or functional assay
[1] = molecular target: SARS-CoV-2 spike protein with N439K (SARS-CoV-2) (UniProt P0DTC2)
[2] = molecular target: SARS-CoV-2 spike protein with K444N (SARS-CoV-2) (UniProt P0DTC2)
[3] = molecular target: SARS-CoV-2 spike protein with K444T (SARS-CoV-2) (UniProt P0DTC2)
[4] = molecular target: SARS-CoV-2 spike protein with K444Q (SARS-CoV-2) (UniProt P0DTC2)
[5] = molecular target: SARS-CoV-2 spike protein with V445A (SARS-CoV-2) (UniProt P0DTC2)

Q: How did the reduced susceptibility (fold; neutralization assays using pseudotyped VSV) [1] turn out when mAb10987 (antibody) was run?
A: 463 fold

Q: What about the reduced susceptibility (fold; neutralization) [2] of the same substance?
A: > 755 fold

Q: What about the reduced susceptibility (fold; neutralization) [3] of the same substance?
A: > 1030 fold

Q: What about the reduced susceptibility (fold; neutralization) [4] of the same substance?
A: > 548 fold

Q: What about the reduced susceptibility (fold; neutralization) [5] of the same substance?
A: 548 fold
